What was measured:
[1] = molecular target: T1, human CD8 on human T cells (human, UniProt P01732 22-235; P10966 22-210); experiment: cell-based or functional assay
[2] = molecular target: T2, cynomolgus monkey CD8 on cynomolgus cells (cynomolgus monkey); experiment: cell-based or functional assay
[3] = molecular target: T1, human CD8 on human T cells; experiment: flow cytometry, human PBMCs incubated 30 min at 37 C with the fusion protein, anti-IL-12, gated on CD8+ T cells
Description: (§1) Fusion proteins H6K3-IgG-IL12 (LC) and H6K3-IgG-IL12 (1×HC) were also evaluated for their ability to bind CD8-expressing cells in human and cynomolgus monkey PBMCs. Briefly, 5×10⁴ human PBMCs (StemCell Technologies) or cynomolgus monkey PBMCs (iQ Biosciences) were incubated with 7 serial 5-fold dilutions of one of the two aforementioned H6K3-IgG-IL12 constructs for 30 minutes at 37° C. Cells were washed twice with MACS buffer and stained with viability dye and fluorophore-conjugated antibodies against IL-12 and cell-surface markers for 20 minutes at 4° C. Cells were analyzed on a FACSCelesta using Diva software (BD Biosciences). Binding activity for all treatments was quantified and represented as the mean fluorescence intensity values of IL-12 on human CD8+ T cells and NK cells (FIGS. 17A-17B) and on cynomolgus monkey CD8+ T cells and NK cells (FIGS. 17C-17D). For the H6K3-IgG-IL12 (LC) treatments, results are also reported as the frequency of IL-12+CD8+ T cells and NK cells (FIG. 17E). As shown in FIGS. 17A-17D, both H6K3-IgG-IL12 (LC) and H6K3-IgG-IL12 (1×HC) were able to selectively bind human CD8+ T cells over NK cells at a range of concentrations. Only a small proportion of human NK cells express CD8, and therefore the H6K3-IgG-IL12 (LC) construct only bound a small proportion of human NK cells (FIG. 17E upper left and upper right). […]

[4] = molecular target: T2, cynomolgus monkey CD8 on cynomolgus …; experiment: flow cytometry, cynomolgus PBMCs incubated 30 min at 37 C with the fusion protein, anti-IL-12, gated on CD8+ T cells
Description: as §1

[5] = molecular target: T1, human CD8 on human T cells; experiment: flow cytometry, human PBMCs incubated 30 min at 37 C with the fusion protein, AF647 anti-human IL-12, gated on CD8+ T cells
Description: Fusion proteins H6K3-IgG-IL12 (LC) and H6K3-IgG-IL12 (1×HC) were evaluated for their ability to selectively bind human CD8+ T cells in PBMCs. Briefly, 5×10⁴ human PBMCs (StemCell Technologies) were incubated with 7 serial 5-fold dilutions of one of the two aforementioned H6K3-IgG-IL12 constructs for 30 minutes at 37° C. Cells were washed twice with MACS buffer and stained for 20 minutes at 4° C. with fluorophore-conjugated anti-CD3, anti-CD4, anti-CD8, anti-CD56, and anti-IL12 antibodies, and viability dye. Cells were analyzed on a FACSCelesta using Diva software (BD Biosciences). Binding activity was quantified and represented as the mean fluorescent intensity values of IL-12 on either CD8+ T cells or NK Cells. As shown in FIGS. 16A-16B, both H6K3-IgG-IL12 (LC) and H6K3-IgG-IL12 (1×HC) were able to selectively bind human CD8+ T cells over NK cells at a range of concentrations.

[6] = molecular target: T2, cynomolgus monkey CD8 on cynomolgus …; experiment: flow cytometry, cynomolgus PBMCs incubated 30 min at 37 C with the fusion protein, anti-IL-12, gated on NK cells, which express CD8 in the cynomolgus monkey
Description: as §1

T1 sequence (P01732 22-235, chain 1 of 2): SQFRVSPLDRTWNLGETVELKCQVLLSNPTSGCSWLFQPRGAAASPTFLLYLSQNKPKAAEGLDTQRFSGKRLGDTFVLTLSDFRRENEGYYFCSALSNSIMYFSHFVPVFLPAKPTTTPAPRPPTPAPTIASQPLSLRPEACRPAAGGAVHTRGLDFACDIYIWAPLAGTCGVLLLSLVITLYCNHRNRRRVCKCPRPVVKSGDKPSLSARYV
T1 sequence (P10966 22-210, chain 2 of 2): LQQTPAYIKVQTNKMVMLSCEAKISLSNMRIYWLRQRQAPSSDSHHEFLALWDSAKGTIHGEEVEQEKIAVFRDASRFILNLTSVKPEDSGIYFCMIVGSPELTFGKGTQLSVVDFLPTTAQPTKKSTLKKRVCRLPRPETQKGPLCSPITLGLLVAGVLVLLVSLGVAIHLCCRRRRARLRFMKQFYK

EC50 for stimulation of pSTAT4 signaling, human CD8+ T cells in activated PBMCs [1]: 2.3 pM | EC50 for stimulation of pSTAT4 signaling, cynomolgus CD8+ T cells in activated PBMCs [2]: 2.3 pM | EC50 for stimulation of pSTAT4 signaling, cynomolgus NK cells in activated PBMCs [2]: 2 pM | EC50 (read off the curve) [3]: ~40 pM | EC50 (read off the curve) [4]: ~50 pM | EC50 (read off the curve) [5]: ~60 pM | EC50 (read off the curve) [6]: ~90 pM
B1: H6K3-IgG-IL12 (1×HC) (other)
heavy 1: EVQLVQSGAEVKKPGATVKISCKASGYTFTDFTMHWVQQAPGKGLEWIGLVNPNNGGNIYAEKFQGRVTLTVDTSTSTAYMELSSLRSEDTAVYYCGRVPLYTSHGMDYWGQGTLVTVSSASTKGPSVFPLAPSSKSTSGGTAALGCLVKDYFPEPVTVSWNSGALTSGVHTFPAVLQSSGLYSLSSVVTVPSSSLGTQTYICNVNHKPSNTKVDKKVEPKSCDKTHTCPPCPAPEAAGGPSVFLFPPKPKDTLMISRTPEVTCVVVDVSHEDPEVKFNWYVDGVEVHNAKTKPREEQYASTYRVVSVLTVLHQDWLNGKEYKCKVSNKALGAPIEKTISKAKGQPREPQVYTLPPSRDELTKNQVSLWCLVKGFYPSDIAVEWESNGQPENNYKTTPPVLDSDGSFFLYSKLTVDKSRWQQGNVFSCSVMHEALHNHYTQKSLSLSPGKGGGSGGGGSGGGGSGGGGSIWELKKDVYVVELDWYPDAPGEMVVLTCDTPEEDGITWTLDQSSEVLGSGKTLTIQVKEFGDAGQYTCHKGGEVLSHSLLLLHKKEDGIWSTDILKDQKEPKNKTFLRCEAKNYSGRFTCWWLTTISTDLTFSVKSSRGSSDPQGVTCGAATLSAERVRGDNKEYEYSVECQEDSACPAAEESLPIEVMVDAVHKLKYENYTSSFFIRDIIKPDPPKNLQLKPLKNSRQVEVSWEYPDTWSTPHSYFSLTFCVQVQGKSKREKKDRVFTDKTSATVICRKNASISVRAQDRYYSSSWSEWASVPCSGGGSGGGSGGGSGGGSRNLPVATPDPGMFPCLHHSQNLLRAVSNMLQKARQTLEFYPCTSEEIDHEDITKDKTSTVEACLPLELTKNESCLNSRETSFITNGSCLASRKTSFMMALCLSSIYEDLKMYQVEFKTMNAKLLMDPKRQIFLDQNMLAVIDELMQALNFNSETVPQKSSLEEPDFYKTKIKLCILLHAFRIRAVTIDRVMSYLNAS
heavy 2: EVQLVQSGAEVKKPGATVKISCKASGYTFTDFTMHWVQQAPGKGLEWIGLVNPNNGGNIYAEKFQGRVTLTVDTSTSTAYMELSSLRSEDTAVYYCGRVPLYTSHGMDYWGQGTLVTVSSASTKGPSVFPLAPSSKSTSGGTAALGCLVKDYFPEPVTVSWNSGALTSGVHTFPAVLQSSGLYSLSSVVTVPSSSLGTQTYICNVNHKPSNTKVDKKVEPKSCDKTHTCPPCPAPEAAGGPSVFLFPPKPKDTLMISRTPEVTCVVVDVSHEDPEVKFNWYVDGVEVHNAKTKPREEQYASTYRVVSVLTVLHQDWLNGKEYKCKVSNKALGAPIEKTISKAKGQPREPQVYTLPPSRDELTKNQVSLSCAVKGFYPSDIAVEWESNGQPENNYKTTPPVLDSDGSFFLVSKLTVDKSRWQQGNVFSCSVMHEALHNHYTQKSLSLSPGK
light: EIVLTQSPATLSLSPGERATISCRASESVDSYDINSMHWYQQKPGQAPRLLIYRASHLQSGIPARFSGSGSRTDFTLTISSLEPEDFATYYCQQSNEDPLTFGQGTKLEIKRTVAAPSVFIFPPSDEQLKSGTASVVCLLNNFYPREAKVQWKVDNALQSGNSQESVTEQDSKDSTYSLSSTLTLSKADYEKHKVYACEVTHQGLSSPVTKSFNRGEC
notes: also called hCD8IgG-1×IL12 (HC); hCD8IgG-IL12 (1 × HC)

From patent publication US20250101107A1 (REPERTOIRE IMMUNE MEDICINES, published 2025)
